# From US20150344570A1 (published 2015)
# T1: FcgRIIaR (human, UniProt P12318 34-217)
# T1 construct: extracellular domain; also called FcγRIIa R; FcgRIIa type R; not shown: His tag attached to the C terminus
# T1 sequence (looked up): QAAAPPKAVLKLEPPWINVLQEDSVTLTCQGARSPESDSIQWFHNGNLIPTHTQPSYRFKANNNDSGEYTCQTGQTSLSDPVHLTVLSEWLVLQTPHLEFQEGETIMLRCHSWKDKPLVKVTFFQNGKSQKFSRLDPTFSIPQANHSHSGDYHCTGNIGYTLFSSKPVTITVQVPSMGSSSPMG
# T2: FcgRIIaH (human, UniProt P12318 34-217)
# T2 construct: extracellular domain; also called FcγRIIa H; FcgRIIa type H; not shown: His tag attached to the C terminus
# T2 sequence (looked up): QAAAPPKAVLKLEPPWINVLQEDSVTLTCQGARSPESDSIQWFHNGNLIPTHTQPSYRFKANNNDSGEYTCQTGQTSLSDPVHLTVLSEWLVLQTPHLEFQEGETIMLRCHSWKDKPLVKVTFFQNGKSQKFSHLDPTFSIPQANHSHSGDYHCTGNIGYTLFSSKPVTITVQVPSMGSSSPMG
# T3: FcgRIIb (human, UniProt P31994 43-217)
# T3 construct: extracellular domain; also called FcγRIIb; 2b; not shown: His tag attached to the C terminus
# T3 sequence (looked up): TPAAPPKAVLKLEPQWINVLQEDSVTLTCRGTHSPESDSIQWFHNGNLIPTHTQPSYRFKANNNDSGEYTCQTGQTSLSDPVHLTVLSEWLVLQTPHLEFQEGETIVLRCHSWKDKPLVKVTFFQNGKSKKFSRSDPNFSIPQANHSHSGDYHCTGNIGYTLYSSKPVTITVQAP
# T4: FcgRIIaH (human, UniProt P12318 34-217)
# T4 construct: extracellular domain; also called FcγRIIa H; FcgRIIa type H; not shown: His tag attached to the C terminus
# T4 sequence (looked up): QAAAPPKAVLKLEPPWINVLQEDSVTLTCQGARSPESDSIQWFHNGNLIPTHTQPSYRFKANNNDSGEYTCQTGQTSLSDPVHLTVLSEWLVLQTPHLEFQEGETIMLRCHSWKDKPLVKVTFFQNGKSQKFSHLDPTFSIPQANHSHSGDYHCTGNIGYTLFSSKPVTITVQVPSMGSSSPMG
# T5: FcgRIIb (human, UniProt P31994 43-217)
# T5 construct: extracellular domain; also called FcγRIIb; 2b; not shown: His tag attached to the C terminus
# T5 sequence (looked up): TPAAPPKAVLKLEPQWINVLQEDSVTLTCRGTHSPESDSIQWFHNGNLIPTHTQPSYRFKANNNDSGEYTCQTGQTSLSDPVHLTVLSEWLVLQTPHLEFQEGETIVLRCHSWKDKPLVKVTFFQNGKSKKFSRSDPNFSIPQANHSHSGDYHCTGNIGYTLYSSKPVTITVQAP
# T6: FcgRIIaR (human, UniProt P12318 34-217)
# T6 construct: extracellular domain; also called FcγRIIa R; FcgRIIa type R; not shown: His tag attached to the C terminus
# T6 sequence (looked up): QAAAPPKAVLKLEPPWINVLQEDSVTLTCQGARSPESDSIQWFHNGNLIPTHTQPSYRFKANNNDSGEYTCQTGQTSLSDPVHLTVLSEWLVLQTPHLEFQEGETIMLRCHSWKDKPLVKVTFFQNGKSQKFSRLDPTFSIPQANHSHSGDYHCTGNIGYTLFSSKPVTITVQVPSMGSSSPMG
# Experiments:
# Protein A = molecular target: T7, Protein A (UniProt P38507 37-327); test: Protein A column chromatography, stepwise pH elution; eluted fractions analysed by cation exchange chromatography (peak area %)
# T7 construct: Commercial chromatography resin; also called rProtein A Sepharose Fast Flow (GE Healthcare)
# FcgRIa = molecular target: T8, FcgRIa (human, UniProt P12314 16-292); test: SPR (Biacore), antibody captured on chip, FcgR extracellular domain as analyte
# T8 construct: extracellular domain; also called FcγRIa; FcγRI (CD64); not shown: His tag attached to the C terminus
# T8 sequence (P12314 16-292): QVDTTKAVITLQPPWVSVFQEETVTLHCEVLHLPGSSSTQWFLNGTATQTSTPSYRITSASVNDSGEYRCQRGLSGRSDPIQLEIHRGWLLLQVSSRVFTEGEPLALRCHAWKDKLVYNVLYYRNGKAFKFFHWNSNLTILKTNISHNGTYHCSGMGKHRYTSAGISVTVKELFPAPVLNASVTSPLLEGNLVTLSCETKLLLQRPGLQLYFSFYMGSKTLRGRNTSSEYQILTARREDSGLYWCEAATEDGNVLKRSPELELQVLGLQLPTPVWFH
# Experimental: (§1) Specifically, H240-Kn204 resulting from the introduction of L234Y/K290Y/Y296W into H240-Kn033, H240-Hl211 resulting from the introduction of S239D/A330M/K334V into H240-Hl033, H240-Kn205 resulting from the introduction of L234Y/Y296W/S298C into H240-Kn033, and H240-Hl212 resulting from the introduction of S239D/K334V into H240-Hl033 were produced according to the method of Reference Example 1. H240-Kn204/H240-Hl211/L73-k0 and H240-Kn205/H240-Hl212/L73-k0 were prepared according to the method of Reference Example 1, by combining H240-Kn204 as one of the H chains and L73-k0 as the L chains with H240-Hl211 as the other H chain, and by combining H240-Kn205 as one of the H chains and L73-k0 as the L chains with H240-Hl212 as the other H chain, and then expressing them. The binding of the prepared variants to FcgRIa, FcgRIIaR, FcgRIIaH, FcgRIIb, FcgRIIIaF, and FcgRIIIaV was measured according to the method of Reference Example 8.
# (§2) Analysis of interaction between objective antibody and the FcγR was carried out using Biacore T100 (GE Healthcare), Biacore T200, Biacore A100, and Biacore 4000. HBS-EP+ (GE Healthcare) was used as the running buffer, and the measurement temperature was set to 25° C. Chips produced by immobilizing the antigen peptide by the amine coupling method to a Series S sensor Chip CM5 (GE Healthcare), chips produced by allowing preliminarily biotinylated antigen peptides to interact with and immobilize onto a Series S Sensor Chip SA (certified) (GE Healthcare), chips produced by immobilizing Protein L (ACTIGEN, BioVision) to Series S Sencor Chip CM5 (GE Healthcare), or chips produced by immobilizing Protein A/G (Thermo Scientific) to Series S Sencor Chip CM5 (GE Healthcare) were used. Antibodies of interest were captured onto these chips, and allowed to interact to each FcγR diluted with running buffer. To regenerate and repeatedly use the chip, the antibodies captured onto the chip were washed off by reacting 10 mM glycine-HCl, pH 1.5.
# FcgRIIaR [1] = molecular target: T1, FcgRIIaR; test: as above
# Experimental: as §1, §2
# FcgRIIIaF [2] = molecular target: T9, FcgRIIIaF (human, UniProt P08637 17-208); test: as above
# T9 construct: extracellular domain; also called FcγRIIIa F; 3aF; not shown: His tag attached to the C terminus
# Experimental: as §1, §2
# T9 sequence (P08637 17-208): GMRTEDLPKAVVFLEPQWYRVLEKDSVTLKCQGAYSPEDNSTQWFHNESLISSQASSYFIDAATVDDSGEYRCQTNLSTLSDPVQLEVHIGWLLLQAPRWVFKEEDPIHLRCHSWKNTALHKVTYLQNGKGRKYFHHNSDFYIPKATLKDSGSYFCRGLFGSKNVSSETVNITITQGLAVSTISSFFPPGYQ
# FcgRIIaH [3] = molecular target: T2, FcgRIIaH; test: as above
# Experimental: as §1, §2
# FcgRIIb [4] = molecular target: T3, FcgRIIb; test: as above
# Experimental: as §1, §2
# FcgRIIIaV [5] = molecular target: T10, FcgRIIIaV (human, UniProt P08637 17-208); test: as above
# T10 construct: extracellular domain; also called FcγRIIIa V; 3aV; not shown: His tag attached to the C terminus
# T10 sequence (P08637 17-208 F176V limits assumed): as the sequence (P08637 17-208) above, with F160V counted along it
# Experimental: as §1, §2
# FcgRIIaH [6] = molecular target: T4, FcgRIIaH; test: SPR (Biacore); KD of H240-Kn033/H240-Hl033/L73-k0 divided by KD of this variant
# FcgRIIIaF [7] = molecular target: T11, FcgRIIIaF (human, UniProt P08637 17-208); test: as above
# T11 construct: extracellular domain; also called FcγRIIIa F; 3aF; not shown: His tag attached to the C terminus
# T11 sequence (P08637 17-208): as the sequence (P08637 17-208) above
# FcgRIIb [8] = molecular target: T5, FcgRIIb; test: as above
# FcgRIIaR [9] = molecular target: T6, FcgRIIaR; test: as above
# FcgRIIIaV [10] = molecular target: T10, FcgRIIIaV; test: as above
binder,measurement,setting,value
"J142-z73/L180-k (antibody, human IgG4 S228P, kappa, also called homomeric antibody against FX) heavy: QVQLVQSGSELKKPGASVKVSCKASGYTFTDNNMDWVRQAPGQGLEWMGDINTRSGGSIYNEEFQDRVTMTIDKSTGTAYMELSSLRSEDTAVYYCARRRSYGYYHDEWGEGTLVTVSSASTKGPSVFPLAPCSRSTSESTAALGCLVKDYFPEPVTVSWNSGALTSGVHTFPAVLQSSGLYSLSSVVTVPSSSLGTKTYTCNVDHKPSNTKVDKRVESKYGPPCPPCPAPEFLGGPSVFLFPPKPKDTLMISRTPEVTCVVVDVSQEDPEVQFNWYVDGVEVHNAKTKPREEQFNSTYRVVSVLTVLHQDWLNGKEYKCKVSNKGLPSSIEKTISKAKGQPREPQVYTLPPSQEEMTKNQVSLTCLVKGFYPSDIAVEWESNGQPENNYKTTPPVLDSDGSFFLYSRLTVDKSRWQEGNVFSCSVMHEALHNRFTQESLSLSP light: DIQMTQSPSSLSASVGDRVTITCKASRNIERNLAWYQQKPGQAPELLIYSASRKESGVPDRFSGSRYGTDFTLTISSLQPEDLATYYCQQYYSPPLTFGGGTKVEIKRTVAAPSVFIFPPSDEQLKSGTASVVCLLNNFYPREAKVQWKVDNALQSGNSQESVTEQDSKDSTYSLSSTLTLSKADYEKHKVYACEVTHQGLSSPVTKSFNRGEC",binding result,Protein A,no binding
"H240-Kn125/H240-Hl076/L73-k0 (antibody, human IgG1, kappa) heavy 1: QDQLVQSGAEVKKPGASVKVSCKASGFNIKDTYIQWVRQAPGQGLEWMGRIDPLRKQTKYREKFEGRVTITADTSTNTAYMELSSLRSEDTAVYYCVRSGREFDYWGQGTLVTVSSASTKGPSVFPLAPSSKSTSGGTAALGCLVKDYFPEPVTVSWNSGALTSGVHTFPAVLQSSGLYSLSSVVTVPSSSLGTQTYICNVNHKPSNTKVDKKVEPKSCDKTHTCPPCPAPEYQWGPMVFLFPPKPKDTLMISRTPEVTCVVVDVSDEEPEVKFNWYVDGVEVHNAKTKPREEQYNATYRVVSVLTVLHQDWLNGKEYKCKVSNKALPAPIEKTISKAKGQPREPQVCTLPPSRDELTKNQVSLWCLVKGFYPSDIAVEWESNGQPENNYKTTPPVLDSDGSFFLYSKLTVDKSRWQQGNVFSCSVMHEALHNHYTQKSLSLSP heavy 2: QDQLVQSGAEVKKPGASVKVSCKASGFNIKDTYIQWVRQAPGQGLEWMGRIDPLRKQTKYREKFEGRVTITADTSTNTAYMELSSLRSEDTAVYYCVRSGREFDYWGQGTLVTVSSASTKGPSVFPLAPSSKSTSGGTAALGCLVKDYFPEPVTVSWNSGALTSGVHTFPAVLQSSGLYSLSSVVTVPSSSLGTQTYICNVNHKPSNTKVDKKVEPKSCDKTHTCPPCPAPELLGGPSVFLFPPKPKDTLMISRTPEVTCVVVDVSHEEPEVKFNWYVDGVEVHNAKTKPREEQYNSTYRVVSVLTVLHQDWLNGKEYKCKVSNDALPMPIEETISKAKGQPREPQVYTLPPSRCELTKNQVSLSCAVKGFYPSDIAVEWESNGQPENNYKTTPPVLDSDGSFFLVSKLTVDKSRWQQGNVFSCSVMHEALHNHYTQKSLSLSP light: DIQMTQSPSSLSASVGDRVTITCRASQDIHKYIAWYQQKPGQAPRLLIQYTSTLQPGVPSRFSGSGSGTDYTFTISSLQPEDIATYYCLQYEQLRTFGGGTKVEIKRTVAAPSVFIFPPSDEQLKSGTASVVCLLNNFYPREAKVQWKVDNALQSGNSQESVTEQDSKDSTYSLSSTLTLSKADYEKHKVYACEVTHQGLSSPVTKSFNRGEC",Kd,FcgRIa,0.066 nM
same,Kd,FcgRIIaR [1],420 nM
same,Kd,FcgRIIIaF [2],1.3 nM
same,Kd,FcgRIIaH [3],140 nM
same,Kd,FcgRIIb [4],3900 nM
"H240-Kn125/H240-Hl076/L73-k0 (antibody, human IgG1, kappa, Anti-epiregulin heterodimerized IgG1, knobs-into-holes) heavy 1: QDQLVQSGAEVKKPGASVKVSCKASGFNIKDTYIQWVRQAPGQGLEWMGRIDPLRKQTKYREKFEGRVTITADTSTNTAYMELSSLRSEDTAVYYCVRSGREFDYWGQGTLVTVSSASTKGPSVFPLAPSSKSTSGGTAALGCLVKDYFPEPVTVSWNSGALTSGVHTFPAVLQSSGLYSLSSVVTVPSSSLGTQTYICNVNHKPSNTKVDKKVEPKSCDKTHTCPPCPAPEYQWGPMVFLFPPKPKDTLMISRTPEVTCVVVDVSDEEPEVKFNWYVDGVEVHNAKTKPREEQYNATYRVVSVLTVLHQDWLNGKEYKCKVSNKALPAPIEKTISKAKGQPREPQVCTLPPSRDELTKNQVSLWCLVKGFYPSDIAVEWESNGQPENNYKTTPPVLDSDGSFFLYSKLTVDKSRWQQGNVFSCSVMHEALHNHYTQKSLSLSP heavy 2: QDQLVQSGAEVKKPGASVKVSCKASGFNIKDTYIQWVRQAPGQGLEWMGRIDPLRKQTKYREKFEGRVTITADTSTNTAYMELSSLRSEDTAVYYCVRSGREFDYWGQGTLVTVSSASTKGPSVFPLAPSSKSTSGGTAALGCLVKDYFPEPVTVSWNSGALTSGVHTFPAVLQSSGLYSLSSVVTVPSSSLGTQTYICNVNHKPSNTKVDKKVEPKSCDKTHTCPPCPAPELLGGPSVFLFPPKPKDTLMISRTPEVTCVVVDVSHEEPEVKFNWYVDGVEVHNAKTKPREEQYNSTYRVVSVLTVLHQDWLNGKEYKCKVSNDALPMPIEETISKAKGQPREPQVYTLPPSRCELTKNQVSLSCAVKGFYPSDIAVEWESNGQPENNYKTTPPVLDSDGSFFLVSKLTVDKSRWQQGNVFSCSVMHEALHNHYTQKSLSLSP light: DIQMTQSPSSLSASVGDRVTITCRASQDIHKYIAWYQQKPGQAPRLLIQYTSTLQPGVPSRFSGSGSGTDYTFTISSLQPEDIATYYCLQYEQLRTFGGGTKVEIKRTVAAPSVFIFPPSDEQLKSGTASVVCLLNNFYPREAKVQWKVDNALQSGNSQESVTEQDSKDSTYSLSSTLTLSKADYEKHKVYACEVTHQGLSSPVTKSFNRGEC",Kd,FcgRIIIaV [5],0.26 nM
same,fold 2aH,FcgRIIaH [6],3.7 fold
same,fold 3aF,FcgRIIIaF [7],223 fold
same,fold 2b,FcgRIIb [8],0.8 fold
same,fold 2aR,FcgRIIaR [9],1.8 fold
same,fold 3aV,FcgRIIIaV [10],185 fold
